Experimental data from patent US20050215509.

Target: T1, recombinant SCCA-1 with a polyhistidine tag (6x His), P29508
T1 chain: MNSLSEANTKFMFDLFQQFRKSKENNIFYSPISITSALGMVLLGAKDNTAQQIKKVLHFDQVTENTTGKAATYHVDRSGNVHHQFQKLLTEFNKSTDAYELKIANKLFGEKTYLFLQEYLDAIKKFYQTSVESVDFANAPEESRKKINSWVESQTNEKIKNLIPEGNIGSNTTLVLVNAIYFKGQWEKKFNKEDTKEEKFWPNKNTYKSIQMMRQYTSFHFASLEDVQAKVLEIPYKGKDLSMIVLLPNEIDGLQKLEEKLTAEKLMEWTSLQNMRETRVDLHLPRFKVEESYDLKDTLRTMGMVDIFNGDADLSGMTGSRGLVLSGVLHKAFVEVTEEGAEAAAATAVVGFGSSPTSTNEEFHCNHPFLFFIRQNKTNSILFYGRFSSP

B1: active recombinant phosphorylated JNK-2 (Cell Signaling) (protein)
chain: MSDSKCDSQFYSVQVADSTFTVLKRYQQLKPIGSGAQGIVCAAFDTVLGINVAVKKLSRPFQNQTHAKRAYRELVLLKCVNHKNIISLLNVFTPQKTLEEFQDVYLVMELMDANLCQVIHMELDHERMSYLLYQMLCGIKHLHSAGIIHRDLKPSNIVVKSDCTLKILDFGLARTACTNFMMTPYVVTRYYRAPEVILGMGYKENVDIWSVGCIMGELVKGCVIFQGTDHIDQWNKVIEQLGTPSAEFMKKLQPTVRNYVENRPKYPGIKFEELFPDWIFPSESERDKIKTSQARDLLSKMLVIDPDKRISVDEALRHPYITVWYDPAEAEAPPPQIYDAQLEEREHAIEEWKELIYKEVMDWEERSKNGVVKDQPSDAAVSSNATPSQSSSINDISSMSTEQTLASDTDSSLDASTGPLEGCR
In the case of B1, the “amount of phosphorylated c-Jun (in vitro pull-down JNK kinase assay on c-Jun fused protein beads, western blot with anti-phosphorylated c-Jun antibody)” value is reported as “in the case of incubating SCCA-1 with active JNK-2, there was no significant decrease in the amount of phosphorylated c-Jun observed as compared with the control”.

B2: active recombinant phosphorylated JNK-1 (Cell Signaling) (protein)
chain: MSRSKRDNNFYSVEIGDSTFTVLKRYQNLKPIGSGAQGIVCAAYDAILERNVAIKKLSRPFQNQTHAKRAYRELVLMKCVNHKNIIGLLNVFTPQKSLEEFQDVYIVMELMDANLCQVIQMELDHERMSYLLYQMLCGIKHLHSAGIIHRDLKPSNIVVKSDCTLKILDFGLARTAGTSFMMTPYVVTRYYRAPEVILGMGYKENVDLWSVGCIMGEMVCHKILFPGRDYIDQWNKVIEQLGTPCPEFMKKLQPTVRTYVENRPKYAGYSFEKLFPDVLFPADSEHNKLKASQARDLLSKMLVIDASKRISVDEALQHPYINVWYDPSEAEAPPPKIPDKQLDEREHTIEEWKELIYKEVMDLEERTKNGVIRGQPSPLAQVQQ
With B2 the “amount of phosphorylated c-Jun (in vitro pull-down JNK kinase assay on c-Jun fused protein beads, western blot with anti-phosphorylated c-Jun antibody)” value was “in the case of incubating SCCA-1 with active JNK-1, the amount of phosphorylated c-Jun decreased remarkably as compared with the control not containing SCCA-1”.
